Target: the molecule itself
Test: non-reducing SDS-PAGE with Western blot; purified hrTFF1 loaded without reducing agents to preserve the disulfide bonds; probed with polyclonal anti-TFF1 antibody

B1: human recombinant protein TFF1 (trefoil factor 1) (natural protein, UniProt P04155 25-84, looked up)
chain: EAQTETCTVAPRERQNCGFPGVTPSQCANKGCCFDDTVRGVPWCFYPNTIDVPPEEECEF
notes: Trefoil factor 1 (TFF1), human, recombinant from the hrTFF1-pIVEX vector; It is probably the mature secreted TFF1 without its signal peptide (surmised); The homodimer is held by disulfide bonds, since it is seen only under non-reducing conditions; also called hrTFF1; hTFF1; source: E. coli BLR (DE3) pLysS, purified (HisTrap HP, Factor Xa digestion, second HisTrap pass)
- stoichiometry N: 2

From article PMC7918695, “TFF1 Induces Aggregation and Reduces Motility of Helicobacter pylori” (International Journal of Molecular Sciences, 2021)
